Legend:
HeLa Kyoto [1] = experiment: solubility in G1/S (NP-40 vs SDS abundance) (log2 ratio); higher = more soluble; details: cell cycle stage: G1/S
HeLa Kyoto [2] = experiment: solubility change mitosis vs G1/S (difference of NP-40 vs SDS log2 ratios) (log2 ratio difference); higher = more soluble in mitosis
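Throughout, for solubility change mitosis vs G1/S (difference of NP-40 vs SDS log2 ratios): synchronized HeLa Kyoto cells (double thymidine block for G1/S, nocodazole release for mitosis), protein amounts in NP-40 versus SDS lysates quantified by mass spectrometry, three biological replicates.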
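Throughout, for solubility in G1/S (NP-40 vs SDS abundance): HeLa Kyoto cells arrested at G1/S by double thymidine block, proteins quantified by TMT10plex mass spectrometry in mild NP-40 versus SDS extracts, three biological replicates.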

Sequence | solubility in G1/S (log2) (HeLa Kyoto [1]) | solubility change mitosis (log2) (HeLa Kyoto [2])
MRRSLAPSQLAKRKPEGRSCDDEDWQPGLVTPRKRKSSSETQIQECFLSPFRKPLSQLTNQPPCLDSSQHEAFIRSILSKPFKVPIPNYQGPLGSRALGLKRAGVRRALHDPLEKDALVLYEPPPLSAHDQLKLDKEKLPVHVVVDPILSKVLRPHQREGVKFLWECVTSRRIPGSHGCIMADEMGLGKTLQCITLMWTLLRQSPECKPEIDKAVVVSPSSLVKNWYNEVGKWLGGRIQPLAIDGGSKDEIDQKLEGFMNQRGARVSSPILIISYETFRLHVGVLQKGSVGLVICDEGHRLKNSENQTYQALDSLNTSRRVLISGTPIQNDLLEYFSLVHFVNSGILGTAHEFKKHFELPILKGRDAAASEADRQLGEERLRELTSIVNRCLIRRTSDILSKYLPVKIEQVVCCRLTPLQTELYKRFLRQAKPAEELLEGKMSVSSLSSITSLKKLCNHPALIYDKCVEEEDGFVGALDLFPPGYSSKALEPQLSGKMLVLDYILAVTRSRSSDKVVLVSNYTQTLDLFEKLCRARRYLYVRLDGTMSIKKRAKVVERFNSPSSPDFVFMLSSKAGGCGLNLIGANRLVMFDPDWNPANDEQAMARVWRDGQKKTCYIYRLLSAGTIEEKIFQRQSHKKALSSCVVDEEQDVERHFSLGELKELFILDEASLSDTHDRLHCRRCVNSRQIRPPPDGSDCTSDLAGWNHCTDKWGLRDEVLQAAWDAASTAITFVFHQRSHEEQRGLR [RAD54L] | -0.0919 | -0.192
MRSRVLWGAARWLWPRRAVGPARRPLSSGSPPLEELFTRGGPLRTFLERQAGSEAHLKVRRPELLAVIKLLNEKERELRETEHLLHDENEDLRKLAENEITLCQKEITQLKHQIILLLVPSEETDENDLILEVTAGVGGQEAMLFTSEIFDMYQQYAAFKRWHFETLEYFPSELGGLRHASASIGGSEAYRHMKFEGGVHRVQRVPKTEKQGRVHTSTMTVAILPQPTEINLVINPKDLRIDTKRASGAGGQHVNTTDSAVRIVHLPTGVVSECQQERSQLKNKELAMTKLRAKLYSMHLEEEINKRQNARKIQIGSKGRSEKIRTYNFPQNRVTDHRINKTLHDLETFMQGDYLLDELVQSLKEYADYESLVEIISQKV [MTRF1L] | -0.0262 | 0.288
MSAAGAGAGVEAGFSSEELLSLRFPLHRACRDGDLATLCSLLQQTPHAHLASEDSFYGWTPVHWAAHFGKLECLVQLVRAGATLNVSTTRYAQTPAHIAAFGGHPQCLVWLIQAGANINKPDCEGETPIHKAARSGSLECISALVANGAHVDLRNASGLTAADIAQTQGFQECAQFLLNLQNCHLNHFYNNGILNGGHQNVFPNHISVGTNRKRCLEDSEDFGVKKARTEAQSLDSAVPLTNGDTEDDADKMHVDREFAVVTDMKNSSSVSNTLTNGCVINGHLDFPSTTPLSGMESRNGQCLTGTNGISSGLAPGQPFPSSQGSLCISGTEEPEKTLRANPELCGSLHLNGSPSSCIASRPSWVEDIGDNLYYGHYHGFGDTAESIPELNSVVEHSKSVKVQERYDSAVLGTMHLHHGS [ANKRD10] | 0.0215 | 0.112
MSANEDQEMELEALRSIYEGDESFRELSPVSFQYRIGENGDPKAFLIEISWTETYPQTPPILSMNAFFNNTISSAVKQSILAKLQEAVEANLGTAMTYTLFEYAKDNKEQFMENHNPINSATSISNIISIETPNTAPSSKKKDKKEQLSKAQKRKLADKTDHKGELPRGWNWVDVVKHLSKTGSKDDE [RWDD4] | 0.234 | 0.301
MSAQTSPAEKGLNPGLMCQESYACSGTDEAIFECDECCSLQCLRCEEELHRQERLRNHERIRLKPGHVPYCDLCKGLSGHLPGVRQRAIVRCQTCKINLCLECQKRTHSGGNKRRHPVTVYNVSNLQESLEAEEMDEETKRKKMTEKVVSFLLVDENEEIQVTNEEDFIRKLDCKPDQHLKVVSIFGNTGDGKSHTLNHTFFYGREVFKTSPTQESCTVGVWAAYDPVHKVAVIDTEGLLGATVNLSQRTRLLLKVLAISDLVIYRTHADRLHNDLFKFLGDASEAYLKHFTKELKATTARCGLDVPLSTLGPAVIIFHETVHTQLLGSDHPSEVPEKLIQDRFRKLGRFPEAFSSIHYKGTRTYNPPTDFSGLRRALEQLLENNTTRSPRHPGVIFKALKALSDRFSGEIPDDQMAHSSFFPDEYFTCSSLCLSCGVGCKKSMNHGKEGVPHEAKSRCRYSHQYDNRVYTCKACYERGEEVSVVPKTSASTDSPWMGLAKYAWSGYVIECPNCGVVYRSRQYWFGNQDPVDTVVRTEIVHVWPGTDGFLKDNNNAAQRLLDGMNFMAQSVSELSLGPTKAVTSWLTDQIAPAYWRPNSQILSCNKCATSFKDNDTKHHCRACGEGFCDSCSSKTRPVPERGWGPAPVRVCDNCYEARNVQLAVTEAQVDDEGGTLIARKVGEAVQNTLGAVVTAIDIPLGLVKDAARPAYWVPDHEILHCHNCRKEFSIKLSKHHCRACGQGFCDECSHDRRAVPSRGWDHPVRVCFNCNKKPGDL [ZFYVE1] | -0.282 | -0.0704
MSELSDEASEPELLNRSLSMWHGLGTQVSGEELDVPLDLHTAASIGQYEVVKECVQRRELDLNKKNGGGWTPLMYASYIGHDTIVHLLLEAGVSVNVPTPEGQTPLMLASSCGNESIAYFLLQQGAELEMKDIQGWTALFHCTSAGHQHMVRFLLDSGANANVREPICGFTPLMEAAAAGHEIIVQYFLNHGVKVDARDHSGATARMLAKQYGHMKIVALMDTYSPSLPKSLYRSPEKYEDLSSSDESCPAPQRQRPCRKKGVSIHEGPRALARITGIGLGGRAPRPRYEQAPPRGYVTFNSSGENPLEEEGLCCRDVTSPINERDVESSSSSSSREEHAFCANLGPVQSSSSSEGLARAQGLSSEASVESNEDSDHACKSSARKQAKSYMKTKNPDSQWPPRAATDREGFLAESSPQTQRAPYSGPQDLAALLEQIGCLKYLQVFEEQDVDLRIFLTLTESDLKEIGITLFGPKRKMTSAIARWHSSARPPGDALELAYADRLEAEMQELAIQLHKRCEEVEATRGQVCQEQELRAVVESCLLEQDRAREDLQARLRETWALARDAALVLDQLRACQAELSSRVRQDQPPGAATLGLAVPPADSKGWQASLQAMSLPELSGALEDRVREMGQALCLVTQSLEKLQVLNGKKWRET [ANKS3] | -0.0739 | 0.0304
MSENNKNSLESSLRQLKCHFTWNLMEGENSLDDFEDKVFYRTEFQNREFKATMCNLLAYLKHLKGQNEAALECLRKAEELIQQEHADQAEIRSLVTWGNYAWVYYHMGRLSDVQIYVDKVKHVCEKFSSPYRIESPELDCEEGWTRLKCGGNQNERAKVCFEKALEKKPKNPEFTSGLAIASYRLDNWPPSQNAIDPLRQAIRLNPDNQYLKVLLALKLHKMREEGEEEGEGEKLVEEALEKAPGVTDVLRSAAKFYRRKDEPDKAIELLKKALEYIPNNAYLHCQIGCCYRAKVFQVMNLRENGMYGKRKLLELIGHAVAHLKKADEANDNLFRVCSILASLHALADQYEDAEYYFQKEFSKELTPVAKQLLHLRYGNFQLYQMKCEDKAIHHFIEGVKINQKSREKEKMKDKLQKIAKMRLSKNGADSEALHVLAFLQELNEKMQQADEDSERGLESGSLIPSASSWNGE [IFIT2] | 0.432 | -0.2
MSETDHIASTSSDKNVGKTPELKEDSCNLFSGNESSKLENESKLLSLNTDKTLCQPNEHNNRIEAQENYIPDHGGGEDSCAKTDTGSENSEQIANFPSGNFAKHISKTNETEQKVTQILVELRSSTFPESANEKTYSESPYDTDCTKKFISKIKSVSASEDLLEEIESELLSTEFAEHRVPNGMNKGEHALVLFEKCVQDKYLQQEHIIKKLIKENKKHQELFVDICSEKDNLREELKKRTETEKQHMNTIKQLESRIEELNKEVKASRDQLIAQDVTAKNAVQQLHKEMAQRMEQANKKCEEARQEKEAMVMKYVRGEKESLDLRKEKETLEKKLRDANKELEKNTNKIKQLSQEKGRLHQLYETKEGETTRLIREIDKLKEDINSHVIKVKWAQNKLKAEMDSHKETKDKLKETTTKLTQAKEEADQIRKNCQDMIKTYQESEEIKSNELDAKLRVTKGELEKQMQEKSDQLEMHHAKIKELEDLKRTFKEGMDELRTLRTKVKCLEDERLRTEDELSKYKEIINRQKAEIQNLLDKVKTADQLQEQLQRGKQEIENLKEEVESLNSLINDLQKDIEGSRKRESELLLFTERLTSKNAQLQSESNSLQSQFDKVSCSESQLQSQCEQMKQTNINLESRLLKEEELRKEEVQTLQAELACRQTEVKALSTQVEELKDELVTQRRKHASSIKDLTKQLQQARRKLDQVESGSYDKEVSSMGSRSSSSGSLNARSSAEDRSPENTGSSVAVDNFPQVDKAMLIERIVRLQKAHARKNEKIEFMEDHIKQLVEEIRKKTKIIQSYILREESGTLSSEASDFNKVHLSRRGGIMASLYTSHPADNGLTLELSLEINRKLQAVLEDTLLKNITLKENLQTLGTEIERLIKHQHELEQRTKKT [CCDC186] | 0.232 | 0.000436
MSEVLPADSGVDTLAVFMASSGTTDVTNRNSPATPPNTLNLRSSHNELLNAEIKHTETKNSTPPKCRKKYALTNIQAAMGLSDPAAQPLLGNGSANIKLVKNGENQLRKAAEQGQQDPNKNLSPTAVINITSEKLEGKEPHPQDSSSCEILPSQPRRTKSFLNYYADLETSARELEQNRGNHHGTAEEKSQPVQGQASTIIGNGDLLLQKPNRPQSSPEDGQVATVSSSPETKKDHPKTGAKTDCALHRIQNLAPSDEESSWTTLSQDSASPSSPDETDIWSDHSFQTDPDLPPGWKRVSDIAGTYYWHIPTGTTQWERPVSIPADLQGSRKGSLSSVTPSPTPENEKQPWSDFAVLNGGKINSDIWKDLHAATVNPDPSLKEFEGATLRYASLKLRNAPHPDDDDSCSINSDPEAKCFAVRSLGWVEMAEEDLAPGKSSVAVNNCIRQLSYCKNDIRDTVGIWGEGKDMYLILENDMLSLVDPMDRSVLHSQPIVSIRVWGVGRDNGRDFAYVARDKDTRILKCHVFRCDTPAKAIATSLHEICSKIMAERKNAKALACSSLQERANVNLDVPLQVDFPTPKTELVQKFHVQYLGMLPVDKPVGMDILNSAIENLMTSSNKEDWLSVNMNVADATVTVISEKNEEEVLVECRVRFLSFMGVGKDVHTFAFIMDTGNQRFECHVFWCEPNAGNVSEAVQAACMLRYQKCLVARPPSQKVRPPPPPADSVTRRVTTNVKRGVLSLIDTLKQKRPVTEMP [APBB2] | 0.0839 | -0.0698
MSFLIDSSIMITSQILFFGFGWLFFMRQLFKDYEIRQYVVQVIFSVTFAFSCTMFELIIFEILGVLNSSSRYFHWKMNLCVILLILVFMVPFYIGYFIVSNIRLLHKQRLLFSCLLWLTFMYFFWKLGDPFPILSPKHGILSIEQLISRVGVIGVTLMALLSGFGAVNCPYTYMSYFLRNVTDTDILALERRLLQTMDMIISKKKRMAMARRTMFQKGEVHNKPSGFWGMIKSVTTSASGSENLTLIQQEVDALEELSRQLFLETADLYATKERIEYSKTFKGKYFNFLGYFFSIYCVWKIFMATINIVFDRVGKTDPVTRGIEITVNYLGIQFDVKFWSQHISFILVGIIIVTSIRGLLITLTKFFYAISSSKSSNVIVLLLAQIMGMYFVSSVLLIRMSMPLEYRTIITEVLGELQFNFYHRWFDVIFLVSALSSILFLYLAHKQAPEKQMAP [GPR89B] | -0.0559 | -0.167
